The chains are these.
B1: CL-33675_GS_CL-34565 (PR-1613186) (bispecific antibody, human IgG1, kappa, L234A L235A)
heavy: EVTLRESGPALVKPTQTLTLTCTFSGFSLSTYGMGVGWIRQPPGKALEWLANIWWDDDKYYNPSLKNRLTISKDTSKNQVVLTMTNMDPVDTATYYCARIESSGPKYSFDYWGQGTMVTVSSGGGGSGGGGSEVQLVQSGSELKKPGASVKVSCKASGYTFTDYGMYWVRQAPGQGLEWMGWIDTETGDPTYADDFKGRFVFSLDTSVSTAYLQISSLKAEDTAVYYCARTNYYYRNYMFYFDYWGQGTMVTVSSASTKGPSVFPLAPSSKSTSGGTAALGCLVKDYFPEPVTVSWNSGALTSGVHTFPAVLQSSGLYSLSSVVTVPSSSLGTQTYICNVNHKPSNTKVDKKVEPKSCDKTHTCPPCPAPEAAGGPSVFLFPPKPKDTLMISRTPEVTCVVVDVSHEDPEVKFNWYVDGVEVHNAKTKPREEQYNSTYRVVSVLTVLHQDWLNGKEYKCKVSNKALPAPIEKTISKAKGQPREPQVYTLPPSREEMTKNQVSLTCLVKGFYPSDIAVEWESNGQPENNYKTTPPVLDSDGSFFLYSKLTVDKSRWQQGNVFSCSVMHEALHNAYTQKSLSLSPGK
light: EIVLTQSPGTLSLSPGERATLSCRASSGSIWYSFVSWYQQKPGQAPRLLIYADDQRASGIPDRFSGSGSGTDFTLTISRLEPEDFAVYYCQSYGINIDVVFGGGTKVEIKGGSGGGGSGGEIVLTQSPATLSLSPGERATLFCRASQSVSNHMHWYQQKPGQAPRLLIYGASILESGVPARFSGSGSGTDFTLTISSLEPEDFAVYYCQQSWYDPITFGQGTKLEIKRTVAAPSVFIFPPSDEQLKSGTASVVCLLNNFYPREAKVQWKVDNALQSGNSQESVTEQDSKDSTYSLSSTLTLSKADYEKHKVYACEVTHQGLSSPVTKSFNRGEC
B2: 9E8.4_GS_CL-34565 (PR-1613187) (bispecific antibody, human IgG1, kappa, L234A L235A)
heavy: B1 heavy with S103I, P105T, K106T
light: EFVLTQSPGTLSLSPGERATLSCERSSGDIGDSYVSWYQQKPGQAPRLVIYADDQRPSGIPDRFSGSGSGTDFTLTISRLEPEDFAVYYCQSYDINIDIVFGGGTKVEIKGGSGGGGSGGEIVLTQSPATLSLSPGERATLFCRASQSVSNHMHWYQQKPGQAPRLLIYGASILESGVPARFSGSGSGTDFTLTISSLEPEDFAVYYCQQSWYDPITFGQGTKLEIKRTVAAPSVFIFPPSDEQLKSGTASVVCLLNNFYPREAKVQWKVDNALQSGNSQESVTEQDSKDSTYSLSSTLTLSKADYEKHKVYACEVTHQGLSSPVTKSFNRGEC
B3: 9E8.4_GS_4G8.5 (PR-1613188) (bispecific antibody, human IgG1, kappa, L234A L235A)
heavy: EVTLRESGPALVKPTQTLTLTCTFSGFSLSTYGMGVGWIRQPPGKALEWLANIWWDDDKYYNPSLKNRLTISKDTSKNQVVLTMTNMDPVDTATYYCARIESIGTTYSFDYWGQGTMVTVSSGGGGSGGGGSEIQLVQSGSELKKPGASVKVSCKASGYTFTNYGMYWVRQAPGQGLEYMGWINTETGKPTYADDFKGRFVFSLDTSVSTAYLQISSLKAEDTAVYFCARTNYYYRSYIFYFDYWGQGTMVTVSSASTKGPSVFPLAPSSKSTSGGTAALGCLVKDYFPEPVTVSWNSGALTSGVHTFPAVLQSSGLYSLSSVVTVPSSSLGTQTYICNVNHKPSNTKVDKKVEPKSCDKTHTCPPCPAPEAAGGPSVFLFPPKPKDTLMISRTPEVTCVVVDVSHEDPEVKFNWYVDGVEVHNAKTKPREEQYNSTYRVVSVLTVLHQDWLNGKEYKCKVSNKALPAPIEKTISKAKGQPREPQVYTLPPSREEMTKNQVSLTCLVKGFYPSDIAVEWESNGQPENNYKTTPPVLDSDGSFFLYSKLTVDKSRWQQGNVFSCSVMHEALHNAYTQKSLSLSPGK
light: EFVLTQSPGTLSLSPGERATLSCERSSGDIGDSYVSWYQQKPGQAPRLVIYADDQRPSGIPDRFSGSGSGTDFTLTISRLEPEDFAVYYCQSYDINIDIVFGGGTKVEIKGGSGGGGSGGATQLTQSPSLSASVGDRVTITCRASESVSTHMHWYQQKPGKQPKLLIYGASNLESGVPSRFSGSGSGTDFTLTISSLQPEDFATYFCQQSWNDPFTFGQGTKLEIKRTVAAPSVFIFPPSDEQLKSGTASVVCLLNNFYPREAKVQWKVDNALQSGNSQESVTEQDSKDSTYSLSSTLTLSKADYEKHKVYACEVTHQGLSSPVTKSFNRGEC
B4: 3E2.1_GS_CL-34565 (PR-1613189) (bispecific antibody, human IgG1, kappa, L234A L235A)
heavy: EVQLVQSGAEVKKPGSSVKVSCKASGYTFTESYMYWVKQAPGQGLELIGRIDPEDGSTDYVEKFKNKATLTADKSTSTAYMELSSLRSEDTAVYFCARFGARSYFYPMDAWGQGTTVTVSSGGGGSGGGGSEVQLVQSGSELKKPGASVKVSCKASGYTFTDYGMYWVRQAPGQGLEWMGWIDTETGDPTYADDFKGRFVFSLDTSVSTAYLQISSLKAEDTAVYYCARTNYYYRNYMFYFDYWGQGTMVTVSSASTKGPSVFPLAPSSKSTSGGTAALGCLVKDYFPEPVTVSWNSGALTSGVHTFPAVLQSSGLYSLSSVVTVPSSSLGTQTYICNVNHKPSNTKVDKKVEPKSCDKTHTCPPCPAPEAAGGPSVFLFPPKPKDTLMISRTPEVTCVVVDVSHEDPEVKFNWYVDGVEVHNAKTKPREEQYNSTYRVVSVLTVLHQDWLNGKEYKCKVSNKALPAPIEKTISKAKGQPREPQVYTLPPSREEMTKNQVSLTCLVKGFYPSDIAVEWESNGQPENNYKTTPPVLDSDGSFFLYSKLTVDKSRWQQGNVFSCSVMHEALHNAYTQKSLSLSPGK
light: ETVLTQSPATLSLSPGERATLSCRASESVSTLMHWYQQKPGQQPRLLIYGASNLESGVPARFSGSGSGTDFTLTISSLEPEDFAVYFCQQSWNDPWTFGGGTKVEIKGGSGGGGSGGEIVLTQSPATLSLSPGERATLFCRASQSVSNHMHWYQQKPGQAPRLLIYGASILESGVPARFSGSGSGTDFTLTISSLEPEDFAVYYCQQSWYDPITFGQGTKLEIKRTVAAPSVFIFPPSDEQLKSGTASVVCLLNNFYPREAKVQWKVDNALQSGNSQESVTEQDSKDSTYSLSSTLTLSKADYEKHKVYACEVTHQGLSSPVTKSFNRGEC
B5: CL-34565_GS_3E2.1 (PR-1613185) (bispecific antibody, human IgG1, kappa, L234A L235A)
heavy: EVQLVQSGSELKKPGASVKVSCKASGYTFTDYGMYWVRQAPGQGLEWMGWIDTETGDPTYADDFKGRFVFSLDTSVSTAYLQISSLKAEDTAVYYCARTNYYYRNYMFYFDYWGQGTMVTVSSGGGGSGGGGSEVQLVQSGAEVKKPGSSVKVSCKASGYTFTESYMYWVKQAPGQGLELIGRIDPEDGSTDYVEKFKNKATLTADKSTSTAYMELSSLRSEDTAVYFCARFGARSYFYPMDAWGQGTTVTVSSASTKGPSVFPLAPSSKSTSGGTAALGCLVKDYFPEPVTVSWNSGALTSGVHTFPAVLQSSGLYSLSSVVTVPSSSLGTQTYICNVNHKPSNTKVDKKVEPKSCDKTHTCPPCPAPEAAGGPSVFLFPPKPKDTLMISRTPEVTCVVVDVSHEDPEVKFNWYVDGVEVHNAKTKPREEQYNSTYRVVSVLTVLHQDWLNGKEYKCKVSNKALPAPIEKTISKAKGQPREPQVYTLPPSREEMTKNQVSLTCLVKGFYPSDIAVEWESNGQPENNYKTTPPVLDSDGSFFLYSKLTVDKSRWQQGNVFSCSVMHEALHNAYTQKSLSLSPGK
light: EIVLTQSPATLSLSPGERATLFCRASQSVSNHMHWYQQKPGQAPRLLIYGASILESGVPARFSGSGSGTDFTLTISSLEPEDFAVYYCQQSWYDPITFGQGTKLEIKGGSGGGGSGGETVLTQSPATLSLSPGERATLSCRASESVSTLMHWYQQKPGQQPRLLIYGASNLESGVPARFSGSGSGTDFTLTISSLEPEDFAVYFCQQSWNDPWTFGGGTKVEIKRTVAAPSVFIFPPSDEQLKSGTASVVCLLNNFYPREAKVQWKVDNALQSGNSQESVTEQDSKDSTYSLSSTLTLSKADYEKHKVYACEVTHQGLSSPVTKSFNRGEC

Substitutions are numbered along the chain they refer to.

recombinant human VEGF165, sequence (P15692 other isoform, or with tags, fused parts or gaps limits assumed): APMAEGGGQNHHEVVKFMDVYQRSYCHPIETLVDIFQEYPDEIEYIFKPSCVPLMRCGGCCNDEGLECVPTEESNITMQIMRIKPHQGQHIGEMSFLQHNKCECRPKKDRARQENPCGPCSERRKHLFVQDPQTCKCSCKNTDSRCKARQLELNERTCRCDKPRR

In the first assay the target is recombinant human PDGF-BB (human, UniProt P01127 82-190). Briefly: cell-based or functional assay.
recombinant human PDGF-BB, sequence (P01127 82-190 limits assumed): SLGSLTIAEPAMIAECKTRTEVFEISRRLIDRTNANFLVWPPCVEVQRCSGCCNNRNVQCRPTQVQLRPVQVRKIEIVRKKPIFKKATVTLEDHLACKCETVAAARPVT
For the molecule B1, the “Potency IC50 (nM), NIH-3T3 hPDGF-BB (proliferation)” value (from here on “Potency IC50 (nM), NIH-3T3 hPDGF-BB”) came out at 0.043 nM.
In the case of B2, the “Potency IC50 (nM), NIH-3T3 hPDGF-BB” value was found to be 0.134 nM.
For the molecule B3, the “Potency IC50 (nM), NIH-3T3 hPDGF-BB” value came to 0.108 nM.
In the case of B4, the “Potency IC50 (nM), NIH-3T3 hPDGF-BB” value came to 1.16 nM.
With B5, the “Potency IC50 (nM), NIH-3T3 hPDGF-BB” value amounted to 6 nM.

The next assay concerns the target recombinant human VEGF165 (human, UniProt P15692 207-395). The assay can be described thus: cell-based or functional assay.
Turning to B1, the “Potency IC50 (nM), HMVEC-d hVEGF165 (proliferation)” value (from here on “Potency IC50 (nM), HMVEC-d hVEGF165”) turned out to be 0.05 nM.
Take B2: the “Potency IC50 (nM), HMVEC-d hVEGF165” value amounted to 0.058 nM.
B3: the “Potency IC50 (nM), HMVEC-d hVEGF165” value is 0.354 nM.
B4: the “Potency IC50 (nM), HMVEC-d hVEGF165” value stood at 0.063 nM.
The same measure, in the same setting: with B5 the figure was 0.053 nM.

(Values after US20170015742A1 (published 2017).)
